Test results reported in patent JP2023014062A (dated 2023).

Key:
[1] = target: T1, B.1.351変異株(ベータ株又は南ア株)のSタンパク質のRBDタンパク質 (SARS-CoV-2 B.1.351変異株, UniProt P0DTC2 322-536); assay: ELISA, RBD coated at 2 μg/ml, Expi293 culture supernatant, HRP anti-human IgG
T1 construct: range 322-536

[2] = target: T2, B.1.1.7変異株(アルファ株又は英国株)のSタンパク質のRBDタンパク質 (SARS-CoV-2 B.1.1.7変異株, UniProt P0DTC2 322-536); assay: as above
T2 construct: range 322-536

B1: 抗体NCV2SG53 (antibody, V domains shown)
VH: QVQMVESGGGLVRPGGSLRLSCAASGFTFSDYYMSWIRQAPGKGLEWISYISSSGSSMNYADSVKGRFTISRDNAKNSLFLQMNSLRAEDTAVYYCAREFDLTKIIMVPPYWGQGTLVTVSS
VL: AIQLTQSPSSLSASVGDRVTITCRASQGISSYLAWYQQKPGKAPKVLIYAASTLQSGVPSRFSGSGSGTDFTLTISSLQPEDFATYYCQQLKSYPLTFGGGTKVEIT
binding result [1]: binds
binding result [2]: binds
